Experimental findings from the supplement of paper PMC10567573 are described below.

B1: CSTF3 (parent)
chain: YVPEKVKKAEKKLEENPYDLDAWS
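Further: lentivirally expressed fusions sorted by FACS into six bins by GFP to DsRed ratio, PSI derived from sequencing read proportions per bin multiplied by bin number.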

The variants in this data set derive from B1. As to the kind of experiment: protein stability index of a GFP-peptide fusion (GPS, HEK-293T) (PSI 1-6); higher = more stable. To be noted: c terminus: a fixed tail appended.
Turning to YVPEKVKKAEKKLEMNPYDLDAWS [E15M], the protein stability index is 2.99.

As to YVPEKVKKAEKKLEFNPYDLDAWS [E15F], the protein stability index came to 2.55.

As for YVPEKVKKAEKKLEGNPYDLDAWS [E15G], the protein stability index was 2.88.

With YVPEKVKKAEKKLEVNPYDLDAWS [E15V], the protein stability index was determined as 3.54.

On to YVPEKVKKAEKKLEKNPYDLDAWS [E15K], for which the protein stability index came out at 3.45.

For YVPEKVKKAEKKLECNPYDLDAWS [E15C], the protein stability index stood at 2.68.

Consider YVPEKVKKAEKKLEDNPYDLDAWS [E15D], for which the protein stability index is 2.86.

As to YVPEKVKKAEKKLESNPYDLDAWS [E15S], the protein stability index was found to be 3.34.

As to YVPEKVKKAEKKLEPNPYDLDAWS [E15P], the protein stability index was found to be 2.47.

For the variant YVPEKVKKAEKKLEANPYDLDAWS [E15A], the protein stability index is 3.94.

Turning to YVPEKVKKAEKKLEWNPYDLDAWS [E15W], the protein stability index amounted to 2.8.

For the variant YVPEKVKKAEKKLEQNPYDLDAWS [E15Q], the protein stability index was found to be 3.42.

Consider YVPEKVKKAEKKLERNPYDLDAWS [E15R], for which the protein stability index is 3.05.

As for YVPEKVKKAEKKLETNPYDLDAWS [E15T], the protein stability index was found to be 1.58.

As for YVPEKVKKAEKKLELNPYDLDAWS [E15L], the protein stability index was found to be 3.23.

Turning to YVPEKVKKAEKKLEHNPYDLDAWS [E15H], the protein stability index turned out to be 2.05.

For the variant YVPEKVKKAEKKLEYNPYDLDAWS [E15Y], the protein stability index stood at 3.42.

With YVPEKVKKAEKKLFENPYDLDAWS [E14F], the protein stability index amounted to 1.88.

As for YVPEKVKKAEKKLKENPYDLDAWS [E14K], the protein stability index came to 2.88.

As for YVPEKVKKAEKKLIENPYDLDAWS [E14I], the protein stability index was 3.95.

YVPEKVKKAEKKLQENPYDLDAWS [E14Q]: the protein stability index is 2.02.

For the variant YVPEKVKKAEKKLSENPYDLDAWS [E14S], the protein stability index was found to be 3.27.

For the variant YVPEKVKKAEKKLVENPYDLDAWS [E14V], the protein stability index worked out at 2.25.

For the variant YVPEKVKKAEKKLNENPYDLDAWS [E14N], the protein stability index stood at 2.18.

Take YVPEKVKKAEKKLYENPYDLDAWS [E14Y]: the protein stability index was 2.2.

Turning to YVPEKVKKAEKKLLENPYDLDAWS [E14L], the protein stability index was 2.35.

Turning to YVPEKVKKAEKKLAENPYDLDAWS [E14A], the protein stability index was 2.61.

Take YVPEKVKKAEKKLCENPYDLDAWS [E14C]: the protein stability index was 3.58.

On to YVPEKVKKAEKKLHENPYDLDAWS [E14H], for which the protein stability index was 2.92.

On to YVPEKVKKAEKKLWENPYDLDAWS [E14W], for which the protein stability index came out at 3.09.

For the variant YVPEKVKKAEKKLTENPYDLDAWS [E14T], the protein stability index amounted to 2.26.

On to YVPEKVKKAEKKLPENPYDLDAWS [E14P], for which the protein stability index was determined as 3.04.

With YVPEKVKKAEKKLRENPYDLDAWS [E14R], the protein stability index was 2.36.

Take YVPEKVKKAEKKLGENPYDLDAWS [E14G]: the protein stability index is 2.17.

Regarding YVPEKVKKAEKKLEENPDDLDAWS [Y18D], the protein stability index came out at 5.04.

With YVPEKVKKAEKKLEENPQDLDAWS [Y18Q], the protein stability index came to 2.17.

With YVPEKVKKAEKKLEENPCDLDAWS [Y18C], the protein stability index came to 2.88.

In the case of YVPEKVKKAEKKLEENPMDLDAWS [Y18M], the protein stability index was found to be 2.58.

As to YVPEKVKKAEKKLEENPSDLDAWS [Y18S], the protein stability index was determined as 2.46.

In the case of YVPEKVKKAEKKLEENPVDLDAWS [Y18V], the protein stability index is 1.45.

Regarding YVPEKVKKAEKKLEENPNDLDAWS [Y18N], the protein stability index was found to be 2.38.

As to YVPEKVKKAEKKLEENPFDLDAWS [Y18F], the protein stability index is 2.55.

With YVPEKVKKAEKKLEENPKDLDAWS [Y18K], the protein stability index worked out at 3.33.

With YVPEKVKKAEKKLEENPLDLDAWS [Y18L], the protein stability index worked out at 2.15.

On to YVPEKVKKAEKKLEENPADLDAWS [Y18A], for which the protein stability index worked out at 2.62.

For the variant YVPEKVKKAEKKLEENPIDLDAWS [Y18I], the protein stability index turned out to be 2.47.

For the variant YVPEKVKKAEKKLEENPEDLDAWS [Y18E], the protein stability index turned out to be 1.93.

As for YVPEKVKKAEKKLEENPGDLDAWS [Y18G], the protein stability index came out at 2.35.

As for YVPEKVKKAEKKLEENPHDLDAWS [Y18H], the protein stability index was 2.12.

Consider YVPEKVKKAEKKLEENPRDLDAWS [Y18R], for which the protein stability index worked out at 2.77.

As to YVPEKVKKAEKKLEENPWDLDAWS [Y18W], the protein stability index turned out to be 1.61.

Turning to YVPEKVKKAEKKLEENPTDLDAWS [Y18T], the protein stability index stood at 2.27.

Regarding YVPEKVKKAEKKLEENPPDLDAWS [Y18P], the protein stability index was found to be 2.71.

Consider YVPEKVKKAEKKLEECPYDLDAWS [N16C], for which the protein stability index came to 1.67.

Turning to YVPEKVKKAEKKLEEIPYDLDAWS [N16I], the protein stability index came out at 1.05.

Turning to YVPEKVKKAEKKLEEFPYDLDAWS [N16F], the protein stability index came out at 3.03.

YVPEKVKKAEKKLEEPPYDLDAWS [N16P]: the protein stability index was determined as 1.67.

For YVPEKVKKAEKKLEEYPYDLDAWS [N16Y], the protein stability index came to 2.56.

YVPEKVKKAEKKLEESPYDLDAWS [N16S]: the protein stability index amounted to 2.65.

YVPEKVKKAEKKLEEAPYDLDAWS [N16A]: the protein stability index amounted to 2.04.

Consider YVPEKVKKAEKKLEEWPYDLDAWS [N16W], for which the protein stability index stood at 2.08.

YVPEKVKKAEKKLEELPYDLDAWS [N16L]: the protein stability index turned out to be 3.68.

For the variant YVPEKVKKAEKKLEEDPYDLDAWS [N16D], the protein stability index was 2.73.

In the case of YVPEKVKKAEKKLEEEPYDLDAWS [N16E], the protein stability index was determined as 3.13.

As for YVPEKVKKAEKKLEEQPYDLDAWS [N16Q], the protein stability index came to 2.24.

For the variant YVPEKVKKAEKKLEEKPYDLDAWS [N16K], the protein stability index is 3.09.

On to YVPEKVKKAEKKLEERPYDLDAWS [N16R], for which the protein stability index stood at 2.64.

YVPEKVKKAEKKLEETPYDLDAWS [N16T]: the protein stability index worked out at 2.27.

Turning to YVPEKVKKAEKKLEEGPYDLDAWS [N16G], the protein stability index is 2.54.

On to YVPEKVKKAEKKLEEMPYDLDAWS [N16M], for which the protein stability index is 1.81.

With YVPEKVKKAEKKLEENGYDLDAWS [P17G], the protein stability index is 2.39.

Regarding YVPEKVKKAEKKLEENAYDLDAWS [P17A], the protein stability index came out at 2.45.

As for YVPEKVKKAEKKLEENSYDLDAWS [P17S], the protein stability index was found to be 2.37.

As to YVPEKVKKAEKKLEENHYDLDAWS [P17H], the protein stability index worked out at 2.04.

With YVPEKVKKAEKKLEENMYDLDAWS [P17M], the protein stability index was determined as 2.48.

Consider YVPEKVKKAEKKLEENNYDLDAWS [P17N], for which the protein stability index worked out at 2.52.

On to YVPEKVKKAEKKLEENLYDLDAWS [P17L], for which the protein stability index worked out at 3.01.

As to YVPEKVKKAEKKLEENTYDLDAWS [P17T], the protein stability index came out at 3.18.

Take YVPEKVKKAEKKLEENQYDLDAWS [P17Q]: the protein stability index is 1.22.

YVPEKVKKAEKKLEENWYDLDAWS [P17W]: the protein stability index is 2.5.

Regarding YVPEKVKKAEKKLEENKYDLDAWS [P17K], the protein stability index came out at 1.32.

As to YVPEKVKKAEKKLEENCYDLDAWS [P17C], the protein stability index was found to be 2.34.

Take YVPEKVKKAEKKLEENEYDLDAWS [P17E]: the protein stability index came to 2.63.

YVPEKVKKAEKKLEENIYDLDAWS [P17I]: the protein stability index worked out at 2.32.

In the case of YVPEKVKKAEKKLEENYYDLDAWS [P17Y], the protein stability index came to 2.43.

Consider YVPEKVKKAEKKLEENVYDLDAWS [P17V], for which the protein stability index stood at 1.43.

With YVPEKVKKAEKKLEENFYDLDAWS [P17F], the protein stability index was 1.95.

For YVPEKVKKAEKKLEENDYDLDAWS [P17D], the protein stability index came out at 3.55.

Take YVPEKVKKAEKKLEENRYDLDAWS [P17R]: the protein stability index was determined as 2.29.

On to YVPEKVKKAEKKLEENPYDCDAWS [L20C], for which the protein stability index was determined as 2.71.

With YVPEKVKKAEKKLEENPYDKDAWS [L20K], the protein stability index worked out at 1.96.

As to YVPEKVKKAEKKLEENPYDMDAWS [L20M], the protein stability index was determined as 1.91.

Consider YVPEKVKKAEKKLEENPYDYDAWS [L20Y], for which the protein stability index was found to be 2.13.

Consider YVPEKVKKAEKKLEENPYDDDAWS [L20D], for which the protein stability index stood at 1.73.
